Source: article PMC4192513, “A Novel Protein-Protein Interaction in the RES (REtention and Splicing) Complex” (The Journal of Biological Chemistry, 2014)
Ends that are not written are not given here.

Experiments:
[1] = target: T1, Snu17p (residues 1–113) (Saccharomyces cerevisiae, UniProt P40565); test: NMR titration (1H,15N correlation spectra) of 15N-labeled Snu17p (residues 1–113) with Bud13p peptides; assay type: binding; conditions: 298 K, 20 mM sodium phosphate, pH 6.3, 25 mM NaCl
T1 construct: The concentration of Snu17p (residues 1–113) in the cell (1440 μl) varied between 30 and 70 μM; His6 (N, cleaved yes); GST (N, cleaved yes); made in house; host or cells: Escherichia coli BL21(DE3) pLysS
T1 sequence (P40565 1-113): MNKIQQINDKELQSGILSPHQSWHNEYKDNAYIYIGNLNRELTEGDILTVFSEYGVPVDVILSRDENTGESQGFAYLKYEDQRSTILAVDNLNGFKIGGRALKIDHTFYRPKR
Experimental: (§1) Recombinant proteins were purified by sonicating the harvested cell pellet in 25 ml of lysis buffer (20 mM Tris, pH 7.5, 300 mM NaCl, 10 mM imidazole, 1 mM DTT, and 0.02% NaN3), also including protease inhibitors, RNase, lysozyme, and 0.2% IGEPAL. After high speed centrifugation (20,000 × g, 30 min) and filtering, each supernatant was applied to Ni-NTA-agarose resin (Qiagen). Several rounds of washing were performed with: lysis buffer including 0.2% IGEPAL, lysis buffer, lysis buffer with high salt concentration (1 M NaCl), and lysis buffer with high imidazole concentration (30 mM imidazole). Finally, each protein was eluted by applying 10 ml of a buffer containing 20 mM Tris, pH 7.5, 300 mM NaCl, 330 mM imidazole, 1 mM DTT, and 0.02% NaN3. Tobacco etch virus protease was added to each sample and incubated overnight at 4 °C. To remove the cleaved GST tag each sample was passed over a second Ni-NTA column. A second purification step included size exclusion chromatography (HiLoad, Superdex 75 16/60, GE Healthcare). In this step, proteins were buffer exchanged into the NMR buffer (20 mM sodium phosphate, pH 6.3, 25 mM NaCl, and 2 mM fresh DTT or Tris(2-carboxyethyl)phosphine, 0.02% NaN3). Stoichiometric hybrid-labeled samples were prepared by mixing excess Bud13p with Snu17p and performing another step of size exclusion chromatography (HiLoad, Superdex 75 16/60, GE Healthcare). Two shorter peptides of Bud13p (residues 221–242 or residues 225–238) were purchased from Peptide Specialty Laboratories (Heidelberg, Germany), and extensively dialyzed before binding experiments.
NMR spectra were recorded at 298 K on an AVIII800 Bruker NMR spectrometer equipped with a cryogenic triple resonance gradient probe. Spectra were processed using NMRPipe ([21]). Protein backbone and side chain assignments were obtained from standard triple resonance experiments ([22]). NOE distance restraints were obtained from ^15N- and ^13C-edited three-dimensional NOESY spectra (mixing time 70 ms) where only Snu17p or Bud13p proteins were labeled. Intermolecular NOE restraints were derived from three-dimensional ^15N,^13C-filtered, ^13C-edited NOESY spectra (mixing time 70 ms) ([22], [23]). Stereospecific assignments of pro-chiral methyl groups of valine and leucine were obtained using 10% ^13C-labeled protein samples ([24]).
To characterize the unexpected molecular features of the Snu17p-Bud13p interaction we proceeded with biophysical and structural characterization of the binary complex (Fig. 3). […] We tested binding to a series of Bud13p fragments to identify the minimum binding region in Bud13p (Fig. 3, a and b). NMR titrations confirmed binding to a Bud13p peptide encompassing residues 201–266 as has been shown previously ([20]).

[2] = Precipitation / solubility of the sample on addition of Bud13p peptide to 15N-labeled Snu17p; assay type: physicochemical; conditions: addition to recombinant 15N-labeled Snu17p, NMR titration
Experimental: as §1, with “Two shorter peptides of Bud13p (residues 221–242 or residues 225–238) were purchased from Peptide Specialty Laboratories (Heidelberg, Germany), and extensively dialyzed before binding experiments.” left out

[3] = system: Snu17p (residues 25–113); test: NMR chemical shift perturbation with shorter Snu17p protein (residues 25–113); assay type: binding, Saccharomyces cerevisiae; conditions: shorter Snu17p protein (residues 25–113) compared with residues 1–113; data not shown
Experimental: as §1, with “Stoichiometric hybrid-labeled samples were prepared by mixing excess Bud13p with Snu17p and performing another step of size exclusion chromatography (HiLoad, Superdex 75 16/60, GE Healthcare). Two shorter peptides of Bud13p (residues 221–242 or residues 225–238) were purchased from Peptide Specialty Laboratories (Heidelberg, Germany), and extensively dialyzed before binding experiments.” left out
(§2) NMR spectra were recorded at 298 K on an AVIII800 Bruker NMR spectrometer equipped with a cryogenic triple resonance gradient probe. […]

[4] = system: Snu17p; test: NMR of 15N-labeled Bud13p in complex with unlabeled Snu17p; assay type: binding, Saccharomyces cerevisiae; conditions: 15N-labeled Bud13p (residues 222–256), 298 K
Experimental: as §1, with “Stoichiometric hybrid-labeled samples were prepared by mixing excess Bud13p with Snu17p and performing another step of size exclusion chromatography (HiLoad, Superdex 75 16/60, GE Healthcare). Two shorter peptides of Bud13p (residues 221–242 or residues 225–238) were purchased from Peptide Specialty Laboratories (Heidelberg, Germany), and extensively dialyzed before binding experiments.” left out
as §2

[5] = target: T1, Snu17p (residues 1–113); test: Isothermal titration calorimetry (ITC) of Bud13p ligands binding to Snu17p; conditions: 25 °C, NMR buffer pH 6.3
Experimental: as §1, with “Two shorter peptides of Bud13p (residues 221–242 or residues 225–238) were purchased from Peptide Specialty Laboratories (Heidelberg, Germany), and extensively dialyzed before binding experiments.” left out

Bud13p^222-256: Bud13p residues 222–256, recombinant from E. coli; optimal Bud13p peptide, minimum interacting region
NMR chemical shift perturbations (CSPs) of Snu17p [1]: large chemical shift changes, induced by Bud13p binding, map on the two helices plus adjacent loop regions of the Snu17p RRM-fold | precipitation / solubility of the sample [2]: proteins remained in solution | NMR CSPs induced by Bud13p binding [3]: Virtually identical NMR CSPs | chemical shift changes in Bud13p spectra on binding to Snu17p [4]: extensive chemical shift changes in Bud13p spectra

Bud13p^201-266: Bud13p residues 201–266, recombinant from E. coli, GST tag cleaved
NMR chemical shift perturbations (CSPs) of Snu17p [1]: extensive chemical shift perturbations (CSPs) | precipitation / solubility of the sample [2]: led to precipitation of the sample

Bud13p^225-238: Bud13p residues 225–238, purchased from Peptide Specialty Laboratories (Heidelberg) (AIMPGSRWDGVHRS)
NMR chemical shift perturbations (CSPs) of Snu17p [1]: hardly induced any NMR spectral changes for Snu17p | binding affinity (in words) [5]: binds very weakly

ENRFAIMPGSRWDGVHRSNGFE [Bud13p^221-242]
NMR chemical shift perturbations (CSPs) of Snu17p [1]: affected the same Snu17p residues but to a lesser extent compared with the longer ones
